These results are taken from PMC10487539, “Glutaryl-CoA Dehydrogenase Misfolding in Glutaric Acidemia Type 1” (International Journal of Molecular Sciences, 2023).

Residue numbers refer to the chain shown, from its start. Names may count otherwise.

Series [1] deals with the molecule itself. Kind of series: SEC; self-association; MBPTrap eluate on HiLoad 16/600 Superdex 200, 20 mM HEPES pH 7.0, 200 mM NaCl, 4 °C; higher oligomers or aggregates 45-55 mL, tetramers 65-75 mL, dimers 75-85 mL, monomers 85-95 mL.
Series [2] concerns the molecule itself. Description: native gel or EMSA; self-association; BN-PAGE and Western blot of proteins purified by affinity chromatography; bands of monomer, dimer and tetramer as percent of total. (In general: A gel shift assay detects complexes by their altered migration in electrophoresis.)
Series [3] deals with the molecule itself. Description: SEC; self-association; as a1 but in 10 mM potassium phosphate buffer with 10% glycerol (used for A433V only), 4 °C.

B1: recombinant human glutaryl-CoA dehydrogenase, wild type, MBP fusion (enzyme)
chain: RPEFDWQDPLVLEEQLTTDEILIRDTFRTYCQERLMPRILLANRNEVFHREIISEMGELGVLGPTIKGYGCAGVSSVAYGLLARELERVDSGYRSAMSVQSSLVMHPIYAYGSEEQRQKYLPQLAKGELLGCFGLTEPNSGSDPSSMETRAHYNSSNKSYTLNGTKTWITNSPMADLFVVWARCEDGCIRGFLLEKGMRGLSAPRIQGKFSLRASATGMIIMDGVEVPEENVLPGASSLGGPFGCLNNARYGIAWGVLGASEFCLHTARQYALDRMQFGVPLARNQLIQKKLADMLTEITLGLHACLQLGRLKDQDKAAPEMVSLLKRNNCGKALDIARQARDMLGGNGISDEYHVIRHAMNLEAVNTYEGTHDIHALILGRAITGIQAFTASK
notes: glutaryl-CoA dehydrogenase (GCDH), human cDNA in pMAL-c2X; the precursor has 438 amino acids and the first 44 are cut on mitochondrial import; No cleavage of MBP is described; The printed masses (tetramer 173.2 kDa) count without MBP; also called GCDH; WT; not shown: MBP, N-terminal, kept
In general, stoichiometry N refers to a count of units in the complex or per binding partner. As to B1, in series [1], the “stoichiometry N” value came out at 4.

B2: recombinant human GCDH variant E414K, MBP fusion (enzyme)
chain: B1 chain with E370K
notes: glutaryl-CoA dehydrogenase (GCDH), human cDNA in pMAL-c2X, patient variant; No cleavage of MBP is described; also called c.1240G > A; not shown: MBP, N-terminal, kept
In the case of B2, in series [1], the binding result was “binds”.

B3: recombinant human GCDH variant R227P, MBP fusion (enzyme)
chain: B1 chain with R183P
notes: glutaryl-CoA dehydrogenase (GCDH), human cDNA in pMAL-c2X, patient variant; No cleavage of MBP is described; also called c.680G > C; source: could not be purified by size-exclusion chromatography; not shown: MBP, N-terminal, kept
In the case of B3, in series [2], the binding result is reported as “binds”.

B4: recombinant human GCDH variant R138G, MBP fusion (enzyme)
chain: B1 chain with R94G
notes: glutaryl-CoA dehydrogenase (GCDH), human cDNA in pMAL-c2X, patient variant; No cleavage of MBP is described; also called c.412A > G; not shown: MBP, N-terminal, kept
With B4, in series [2], the binding result is “binds”.

B5: recombinant human GCDH variant M263V, MBP fusion (enzyme)
chain: B1 chain with M219V
notes: glutaryl-CoA dehydrogenase (GCDH), human cDNA in pMAL-c2X, patient variant; No cleavage of MBP is described; also called c.787A > G; not shown: MBP, N-terminal, kept
For the protein B5, the binding result in series [2] was “binds”.

B6: recombinant human GCDH variant R88C, MBP fusion (enzyme)
chain: B1 chain with R44C
notes: glutaryl-CoA dehydrogenase (GCDH), human cDNA in pMAL-c2X, patient variant; No cleavage of MBP is described; also called c.262C > T; not shown: MBP, N-terminal, kept
In the case of B6, the binding result in series [1] is recorded as “binds”.

B7: recombinant human GCDH variant A433V, MBP fusion (enzyme)
chain: B1 chain with A389V
notes: glutaryl-CoA dehydrogenase (GCDH), human cDNA in pMAL-c2X, patient variant; No cleavage of MBP is described; also called c.1298C > T; not shown: MBP, N-terminal, kept
B7: the binding result in series [3] is on record as “binds”.

B8: recombinant human GCDH variant V400M, MBP fusion (enzyme)
chain: B1 chain with V356M
notes: glutaryl-CoA dehydrogenase (GCDH), human cDNA in pMAL-c2X, patient variant; No cleavage of MBP is described; also called c.1198G > A; not shown: MBP, N-terminal, kept
With B8, the binding result in series [2] is on record as “binds”.

B9: recombinant human GCDH variant A433E, MBP fusion (enzyme)
chain: B1 chain with A389E
notes: glutaryl-CoA dehydrogenase (GCDH), human cDNA in pMAL-c2X, patient variant; No cleavage of MBP is described; also called c.1298C > A; not shown: MBP, N-terminal, kept
Turning to B9, the binding result in series [1] is listed as “binds”.

B10: recombinant human GCDH variant A421V, MBP fusion (enzyme)
chain: B1 chain with A377V
notes: glutaryl-CoA dehydrogenase (GCDH), human cDNA in pMAL-c2X, patient variant; No cleavage of MBP is described; also called c.1262C > T; not shown: MBP, N-terminal, kept
On to B10, for which the binding result in series [1] is given as “binds”.
